Here are results for 7 molecules from patent US20180086849A1 (Hoffmann-La Roche, published 2018).

Test [1] has as its target human MCSP (Melanoma-associated Chondroitin Sulfate Proteoglycan) on cells (human, UniProt Q6UVK1 30-2322). Put plainly: cell-based or functional assay.
The next test addresses Her2 on KPL-4 cells (human (human cell line KPL-4), UniProt P04626 23-1255). Put plainly: cell-based or functional assay.
The target in test [2] is T1, Human EGFR (immobilized on CM5 chip) (human, UniProt P00533 25-645, limits assumed).
T1 construct: also called tumor antigen
Description: SPR (Biacore T100): construct captured at 200 nM on immobilised human EGFR, then CD3 fusion at 2000 nM.

In test [3] the target is T2, human CEA (Carcinoembryonic antigen) on cells (human, UniProt P06731 35-685).
T2 sequence (looked up): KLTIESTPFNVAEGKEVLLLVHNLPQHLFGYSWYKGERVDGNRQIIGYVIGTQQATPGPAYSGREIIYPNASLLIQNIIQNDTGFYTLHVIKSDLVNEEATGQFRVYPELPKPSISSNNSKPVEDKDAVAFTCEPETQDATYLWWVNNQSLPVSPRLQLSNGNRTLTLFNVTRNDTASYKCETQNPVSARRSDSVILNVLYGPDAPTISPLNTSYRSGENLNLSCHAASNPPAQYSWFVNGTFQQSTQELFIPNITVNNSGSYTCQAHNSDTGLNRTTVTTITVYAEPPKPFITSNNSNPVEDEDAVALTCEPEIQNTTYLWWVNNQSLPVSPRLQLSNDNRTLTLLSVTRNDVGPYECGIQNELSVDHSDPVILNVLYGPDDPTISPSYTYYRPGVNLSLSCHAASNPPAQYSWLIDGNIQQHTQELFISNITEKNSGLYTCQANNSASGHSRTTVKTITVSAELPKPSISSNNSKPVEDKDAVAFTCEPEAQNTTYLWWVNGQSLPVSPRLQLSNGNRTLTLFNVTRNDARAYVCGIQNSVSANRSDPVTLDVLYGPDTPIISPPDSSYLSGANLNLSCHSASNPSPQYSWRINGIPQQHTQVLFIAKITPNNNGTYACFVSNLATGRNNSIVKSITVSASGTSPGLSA
Put plainly: cell-based or functional assay.

Sequence of human MCSP (Melanoma-associated Chondroitin Sulfate Proteoglycan) on cells (Q6UVK1 30-2322): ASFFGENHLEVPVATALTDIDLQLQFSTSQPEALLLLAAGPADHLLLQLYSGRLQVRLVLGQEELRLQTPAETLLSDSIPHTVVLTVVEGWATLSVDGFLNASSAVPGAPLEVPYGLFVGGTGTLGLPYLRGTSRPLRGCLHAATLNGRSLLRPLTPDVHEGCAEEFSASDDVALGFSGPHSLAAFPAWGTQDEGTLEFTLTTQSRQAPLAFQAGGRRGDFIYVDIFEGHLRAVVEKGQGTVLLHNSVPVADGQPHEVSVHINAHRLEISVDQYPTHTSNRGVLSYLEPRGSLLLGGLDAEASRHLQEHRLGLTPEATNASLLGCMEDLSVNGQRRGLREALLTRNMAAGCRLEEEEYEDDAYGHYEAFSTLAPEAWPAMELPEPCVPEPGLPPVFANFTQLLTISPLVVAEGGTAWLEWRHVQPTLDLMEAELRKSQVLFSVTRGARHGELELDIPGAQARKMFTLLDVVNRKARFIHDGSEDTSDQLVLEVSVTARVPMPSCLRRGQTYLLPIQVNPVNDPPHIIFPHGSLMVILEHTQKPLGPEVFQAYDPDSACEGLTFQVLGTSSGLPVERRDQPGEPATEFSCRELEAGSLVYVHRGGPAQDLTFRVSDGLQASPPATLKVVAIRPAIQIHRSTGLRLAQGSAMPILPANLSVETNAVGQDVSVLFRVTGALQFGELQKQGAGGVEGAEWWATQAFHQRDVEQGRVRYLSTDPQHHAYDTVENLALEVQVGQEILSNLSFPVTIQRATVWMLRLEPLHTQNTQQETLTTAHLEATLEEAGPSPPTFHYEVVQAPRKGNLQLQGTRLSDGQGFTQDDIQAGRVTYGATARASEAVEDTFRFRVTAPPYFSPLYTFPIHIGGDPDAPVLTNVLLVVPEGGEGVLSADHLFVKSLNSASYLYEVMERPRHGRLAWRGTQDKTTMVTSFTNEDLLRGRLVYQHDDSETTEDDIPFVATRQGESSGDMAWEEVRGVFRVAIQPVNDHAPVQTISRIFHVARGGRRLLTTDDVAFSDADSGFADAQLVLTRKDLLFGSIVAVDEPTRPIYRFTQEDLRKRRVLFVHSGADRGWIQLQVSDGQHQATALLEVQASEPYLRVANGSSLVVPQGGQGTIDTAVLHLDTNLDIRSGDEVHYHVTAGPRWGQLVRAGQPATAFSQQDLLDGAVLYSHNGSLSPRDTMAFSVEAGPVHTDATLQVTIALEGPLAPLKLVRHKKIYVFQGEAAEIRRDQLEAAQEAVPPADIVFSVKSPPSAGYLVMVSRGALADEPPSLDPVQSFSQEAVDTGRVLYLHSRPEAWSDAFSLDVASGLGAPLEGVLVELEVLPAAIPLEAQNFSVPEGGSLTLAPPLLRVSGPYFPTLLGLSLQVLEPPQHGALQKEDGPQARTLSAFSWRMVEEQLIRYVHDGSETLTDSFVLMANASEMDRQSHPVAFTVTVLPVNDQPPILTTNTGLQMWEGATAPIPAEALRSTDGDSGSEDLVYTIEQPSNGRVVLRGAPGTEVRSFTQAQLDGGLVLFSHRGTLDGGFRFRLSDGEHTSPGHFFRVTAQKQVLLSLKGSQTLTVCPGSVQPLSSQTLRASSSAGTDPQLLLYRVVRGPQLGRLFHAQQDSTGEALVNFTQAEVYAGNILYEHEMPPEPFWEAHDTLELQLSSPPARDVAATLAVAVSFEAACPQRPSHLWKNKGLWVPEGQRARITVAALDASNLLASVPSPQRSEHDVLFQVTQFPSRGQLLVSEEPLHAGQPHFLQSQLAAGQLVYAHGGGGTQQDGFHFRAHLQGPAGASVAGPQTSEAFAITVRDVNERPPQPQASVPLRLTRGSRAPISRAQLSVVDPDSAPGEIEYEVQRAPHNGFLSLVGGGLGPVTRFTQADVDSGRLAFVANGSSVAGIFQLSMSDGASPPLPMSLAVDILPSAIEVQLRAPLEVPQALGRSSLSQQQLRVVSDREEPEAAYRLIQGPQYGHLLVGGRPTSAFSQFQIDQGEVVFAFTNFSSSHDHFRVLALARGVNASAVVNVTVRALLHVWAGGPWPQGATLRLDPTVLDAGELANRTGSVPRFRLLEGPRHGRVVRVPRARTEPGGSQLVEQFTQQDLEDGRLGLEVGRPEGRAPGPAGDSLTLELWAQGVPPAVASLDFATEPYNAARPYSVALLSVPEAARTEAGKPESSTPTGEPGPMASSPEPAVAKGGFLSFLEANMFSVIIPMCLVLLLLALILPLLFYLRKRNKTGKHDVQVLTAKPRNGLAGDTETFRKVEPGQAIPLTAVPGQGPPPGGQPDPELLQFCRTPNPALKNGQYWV

B1: aVH TCB (Crossfab fragment with a CD3 binding moiety and two aVH moieties binding MCSP, P329G LALA) (bispecific antibody)
light: SASYRKR
heavy 1: HQYYTYPLFT
heavy 2: QAVVTQEPSLTVSPGGTVTLTCGSSTGAVTTSNYANWVQEKPGQAFRGLIGGTNKRAPGTPARFSGSLLGGKAALTLSGAQPEDEAEYYCALWYSNLWVFGGGTKLTVLSSASTKGPSVFPLAPSSKSTSGGTAALGCLVKDYFPEPVTVSWNSGALTSGVHTFPAVLQSSGLYSLSSVVTVPSSSLGTQTYICNVNHKPSNTKVDKKVEPKSC
For the molecule B1, in test [1], the “EC50 [pM] 24 h of T-cell mediated killing of MV-3 cells” value was 9120 pM and the “EC50 [pM] 48 h of T-cell mediated killing of MV-3 cells” value stood at 8970 pM.

B2: Darpin TCB (Crossfab fragment with a CD3 binding moiety and two Darpin moieties binding HER2, P329G LALA) (bispecific antibody)
light: EVQLVESGGGLVQPGGSLRLSCAASGFNIKDTYIGWVRRAPGKGTELVARIYPTNGYTRYADSVKGRFTISADTSKNTAYLQMNSLRAEDTAVYYCARTSWGGWLSGDYWGQGTLVTVSSDKTHTCPPCPAPEAAGGPSVFLFPPKPKDTLMISRTPEVTCVVVDVSHEDPEVKFNWYVDGVEVHNAKTKPREEQYNSTYRVVSVLTVLHQDWLNGKEYKCKVSNKALGAPIEKTISKAKGQPREPQVCTLPPSRDELTKNQVSLSCAVKGFYPSDIAVEWESNGQPENNYKTTPPVLDSDGSFFLVSKLTVDKSRWQQGNVFSCSVMHEALHNHYTQKSLSLSPGK
heavy 1: not shown
heavy 2: QAVVTQEPSLTVSPGGTVTLTCGSSTGAVTTSNYANWVQEKPGQAFRGLIGGTNKRAPGTPARFSGSLLGGKAALTLSGAQPEDEAEYYCALWYSNLWVFGGGTKLTVLSSASTKGPSVFPLAPSSKSTSGGTAALGCLVKDYFPEPVTVSWNSGALTSGVHTFPAVLQSSGLYSLSSVVTVPSSSLGTQTYICNVNHKPSNTKVDKKVEPKSC
B2: in the test with Her2 on KPL-4 cells, the “EC50 [pM] 24 h of T-cell mediated killing of KPL-4 cells” value was found to be 376 pM and the “EC50 [pM] 48 h of T-cell mediated killing of KPL-4 cells” value was determined as 235 pM.

B3: 1+1 IgG scFab, one armed inverted (anti-EGFR/anti-huCD3) (bispecific antibody)
chain 1: not shown
chain 2: not shown
chain 3: EVQLVESGGGLVQPGGSLRLSCAASGYSFTGYTMNWVRQAPGKGLEWVALINPYKGVSTYNQKFKDRFTISVDKSKNTAYLQMNSLRAEDTAVYYCARSGYYGDSDWYFDVWGQGTLVTVSSASTKGPSVFPLAPSSKSTSGGTAALGCLVKDYFPEPVTVSWNSGALTSGVHTFPAVLQSSGLYSLSSVVTVPSSSLGTQTYICNVNHKPSNTKVDKKVEPKSCDKTHTCPPCPAPEAAGGPSVFLFPPKPKDTLMISRTPEVTCVVVDVSHEDPEVKFNWYVDGVEVHNAKTKPREEQYNSTYRVVSVLTVLHQDWLNGKEYKCKVSNKALGAPIEKTISKAKGQPREPQVCTLPPSRDELTKNQVSLSCAVKGFYPSDIAVEWESNGQPENNYKTTPPVLDSDGSFFLVSKLTVDKSRWQQGNVFSCSVMHEALHNHYTQKSLSLSPGK
On to B3, for which, in test [2], the binding result is “binds”.

B4: 2+1 IgG Crossfab, inverted; VL/VH exchange (CH1A1A/V9), anti-CEA/anti-huCD3 (bispecific antibody)
chain 1: EVQLVESGGGLVQPGGSLRLSCAASGYSFTGYTMNWVRQAPGKGLEWVALINPYKGVSTYNQKFKDRFTISVDKSKNTAYLQMNSLRAEDTAVYYCARSGYYGDSDWYFDVWGQGTLVTVSSASVAAPSVFIFPPSDEQLKSGTASVVCLLNNFYPREAKVQWKVDNALQSGNSQESVTEQDSKDSTYSLSSTLTLSKADYEKHKVYACEVTHQGLSSPVTKSFNRGEC
chain 2: not shown
chain 3: QVQLVQSGAEVKKPGASVKVSCKASGYTFTEFGMNWVRQAPGQGLEWMGWINTKTGEATYVEEFKGRVTFTTDTSTSTAYMELRSLRSDDTAVYYCARWDFAYYVEAMDYWGQGTTVTVSSASTKGPSVFPLAPSSKSTSGGTAALGCLVKDYFPEPVTVSWNSGALTSGVHTFPAVLQSSGLYSLSSVVTVPSSSLGTQTYICNVNHKPSNTKVDKKVEPKSCDKTHTCPPCPAPEAAGGPSVFLFPPKPKDTLMISRTPEVTCVVVDVSHEDPEVKFNWYVDGVEVHNAKTKPREEQYNSTYRVVSVLTVLHQDWLNGKEYKCKVSNKALGAPIEKTISKAKGQPREPQVCTLPPSRDELTKNQVSLSCAVKGFYPSDIAVEWESNGQPENNYKTTPPVLDSDGSFFLVSKLTVDKSRWQQGNVFSCSVMHEALHNHYTQKSLSLSPGK
chain 4: DIQMTQSPSSLSASVGDRVTITCKASAAVGTYVAWYQQKPGKAPKLLIYSASYRKRGVPSRFSGSGSGTDFTLTISSLQPEDFATYYCHQYYTYPLFTFGQGTKLEIKRTVAAPSVFIFPPSDEQLKSGTASVVCLLNNFYPREAKVQWKVDNALQSGNSQESVTEQDSKDSTYSLSSTLTLSKADYEKHKVYACEVTHQGLSSPVTKSFNRGEC
Turning to B4, in test [3], the “EC50 of T cell-mediated killing (LDH release) of LS-174T cells, human PBMCs, 28 h” value was found to be 0.955 nM and the “EC50 of T cell-mediated killing (LDH release) of MKN-45 cells, human PBMCs, 28 h” value is 0.243 nM.

B5: 2+1 IgG scFab, P329G LALA (anti-EGFR/anti-huCD3) (bispecific antibody)
chain 1: QVQLVQSGAEVKKPGSSVKVSCKASGFTFTDYKIHWVRQAPGQGLEWMGYFNPNSGYSTYAQKFQGRVTITADKSTSTAYMELSSLRSEDTAVYYCARLSPGGYYVMDAWGQGTTVTVSSASTKGPSVFPLAPSSKSTSGGTAALGCLVKDYFPEPVTVSWNSGALTSGVHTFPAVLQSSGLYSLSSVVTVPSSSLGTQTYICNVNHKPSNTKVDKKVEPKSCDKTHTCPPCPAPEAAGGPSVFLFPPKPKDTLMISRTPEVTCVVVDVSHEDPEVKFNWYVDGVEVHNAKTKPREEQYNSTYRVVSVLTVLHQDWLNGKEYKCKVSNKALGAPIEKTISKAKGQPREPQVCTLPPSRDELTKNQVSLSCAVKGFYPSDIAVEWESNGQPENNYKTTPPVLDSDGSFFLVSKLTVDKSRWQQGNVFSCSVMHEALHNHYTQKSLSLSPGK
chain 2: DIQMTQSPSSLSASVGDRVTITCRASQGINNYLNWYQQKPGKAPKRLIYNTNNLQTGVPSRFSGSGSGTEFTLTISSLQPEDFATYYCLQHNSFPTFGQGTKLEIKRTVAAPSVFIFPPSDEQLKSGTASVVCLLNNFYPREAKVQWKVDNALQSGNSQESVTEQDSKDSTYSLSSTLTLSKADYEKHKVYACEVTHQGLSSPVTKSFNRGEC
chain 3: not shown
notes: also called 2+1 IgG scFab (EGFR)
As to B5, the binding result in test [2] was “binds”.

B6: 1+1 IgG scFab, one armed (anti-EGFR/anti-huCD3) (bispecific antibody)
chain 1: not shown
chain 2: QVQLVQSGAEVKKPGSSVKVSCKASGFTFTDYKIHWVRQAPGQGLEWMGYFNPNSGYSTYAQKFQGRVTITADKSTSTAYMELSSLRSEDTAVYYCARLSPGGYYVMDAWGQGTTVTVSSASTKGPSVFPLAPSSKSTSGGTAALGCLVKDYFPEPVTVSWNSGALTSGVHTFPAVLQSSGLYSLSSVVTVPSSSLGTQTYICNVNHKPSNTKVDKKVEPKSCDKTHTCPPCPAPEAAGGPSVFLFPPKPKDTLMISRTPEVTCVVVDVSHEDPEVKFNWYVDGVEVHNAKTKPREEQYNSTYRVVSVLTVLHQDWLNGKEYKCKVSNKALGAPIEKTISKAKGQPREPQVCTLPPSRDELTKNQVSLSCAVKGFYPSDIAVEWESNGQPENNYKTTPPVLDSDGSFFLVSKLTVDKSRWQQGNVFSCSVMHEALHNHYTQKSLSLSPGK
chain 3: DIQMTQSPSSLSASVGDRVTITCRASQGINNYLNWYQQKPGKAPKRLIYNTNNLQTGVPSRFSGSGSGTEFTLTISSLQPEDFATYYCLQHNSFPTFGQGTKLEIKRTVAAPSVFIFPPSDEQLKSGTASVVCLLNNFYPREAKVQWKVDNALQSGNSQESVTEQDSKDSTYSLSSTLTLSKADYEKHKVYACEVTHQGLSSPVTKSFNRGEC
With B6, in test [2], the binding result is recorded as “binds”.

B7: 1+1 IgG scFab (anti-EGFR/anti-huCD3) (bispecific antibody)
chain 1: DIQMTQSPSSLSASVGDRVTITCRASQGINNYLNWYQQKPGKAPKRLIYNTNNLQTGVPSRFSGSGSGTEFTLTISSLQPEDFATYYCLQHNSFPTFGQGTKLEIKRTVAAPSVFIFPPSDEQLKSGTASVVCLLNNFYPREAKVQWKVDNALQSGNSQESVTEQDSKDSTYSLSSTLTLSKADYEKHKVYACEVTHQGLSSPVTKSFNRGEC
chain 2: not shown
chain 3: DKTHTCPPCPAPEAAGGPSVFLFPPKPKDTLMISRTPEVTCVVVDVSHEDPEVKFNWYVDGVEVHNAKTKPREEQYNSTYRVVSVLTVLHQDWLNGKEYKCKVSNKALGAPIEKTISKAKGQPREPQVCTLPPSRDELTKNQVSLSCAVKGFYPSDIAVEWESNGQPENNYKTTPPVLDSDGSFFLVSKLTVDKSRWQQGNVFSCSVMHEALHNHYTQKSLSLSPGK
For the molecule B7, the binding result in test [2] is reported as “binds”.
